From US8389231B2, “Assays, method and compositions that exploit a mycobacterial iron acquistion pathway in cells” (The Trustees of Princeton University, priority 2005, dated 2013)

What was measured:
[1] = tested on: macrophages (THP-1 cell line); experiment: MJ-mediated iron acquisition: conversion of MJ to Fe-MJ in macrophage culture, HPLC analysis; type: cell-based, human; details: for stimulation of MJ-mediated iron acquisition from macrophages (conversion of MJ to Fe-MJ): 10 μM transferrin species added to macrophages with MJ, 37° C.; for effect on basal recovery of Fe-MJ: 10 μM metal transferrin added to macrophages with MJ
Experimental: Cell cultures. The THP-1 cell line (a macrophage-like monocyte) was purchased from American Type Culture Collection (ATCC) and used for all protocols. The cells were cultured into PRMI1640 (ATCC) supplemented with 10% fetal bovine serum (ATCC), 2 mM L-glutamine and 0.02 mM penicillin-streptomycin, and maintained at a cell concentration between 2×10^5 and 1×10^6 cells/ml at 37° C. in a 5% CO2 air atmosphere by addition of fresh growth medium (as described above) twice per week. Either PRMI1640 or phenol-red-free PRMI1640 was used with the supply of 2 mM L-glutamine and 0.02 mM penicillin-streptomycin, but in the absence of 10% FBS, for the experiments with MJ.
HPLC analysis for Fe-MJ and MJ. Varian ProStar & PrepStar HPLC and a Waters Delta Pak 5μ C18-300 Åcolumn were used with 3:7 H2O:CH3CN as eluting solution under all conditions. The intensities of the peak with retention time 43 min at 460 nm were integrated and normalized to the amount of Fe-MJ. Macrophages (final concentration, 1×10^5 cells/ml) or 0.05 mM DMPC vesicles as controls were preincubated in RPMI 1640 medium at 37° C. for 4 h, followed by the addition of MJ (final concentration, 1.5 μM). The media were incubated for 24 h at various conditions, such as in the presence or absence of hTf, at varied temperatures or in the presence of different concentrations of desferrioxamine mesylate salt. Three aliquots (3×4 ml) of the medium were collected and lysed by dunces. Lipophilic components were extracted into 3.5 ml CHCl3 and the mixture was centrifuged at 2500 r.p.m for 8 min. The organic layer extraction 2.5 ml was subject to a stream of argon to vaporize CHCl3. The dried mixture was dissolved into 400 μl CH3CN, of which 200 μl solutions was injected into HPLC. The peak intensity of 100% conversion to Fe-MJ was obtained by incubating 1.5 μM Fe-MJ into the medium, following the same workup above.

[2] = Lipid-aqueous-phase partition coefficient using lipid vesicles as model membrane; type: physicochemical
macrophage cells = experiment: Cell-aqueous-phase distributions of MJ and Fe-MJ; type: in vitro ADME, human
Experimental: Cell-aqueous-phase distributions of MJ and Fe-MJ. After the conversion from MJ to Fe-MJ, aqueous-phase Fe-MJ was obtained by separating the supernatant medium from macrophage cells via the centrifugation with 1500 r.p.m for 5 min. The aliquot of recovered supernatant was subject to CHCl3 extract and HPLC analysis as described above. For measurements of the cell/aqueous-phase partition coefficient of Fe-MJ, Fe-MJ 1.0 μM was incubated into RPMI 1640 medium at 37° C. for half an hour in the presence of various concentrations of macrophage cells. Then the supernatant was separated and analyzed as described above. For the partition coefficient of MJ, prior to the HPLC analysis, a 10-fold ferric citrate excess was added into a MJ-CH3CN solution, followed by a two-hr incubation for the complete conversion from MJ to Fe-MJ. Aqueous-phase and total MJ and Fe-MJ, Ctotal and Cw, respectively, were used to calculate Cv/Cw according to the relationship: Cv/Cw=(Ctotal−Cw)/Cw. The partition coefficient, K was defined according to the following equation: Cv/Cw=K×[Cell], in which [Cell] is the concentration of macrophage cells (cells/ml) and Cv is the amount of lipid-phase MJ or Fe-MJ.

| Substance | stimulation of MJ-mediated iron acquisition from macrophages (conversion of MJ to Fe-MJ) [1] | effect on basal recovery of Fe-MJ [1] | other results |
| --- | --- | --- | --- |
| hTf: fully saturated holo-transferrin (human transferrin), obtained from Sigma | nearly doubled |  | hTf-triggered conversion at low temperatures ([1]; 10 μM hTf, low temperatures (4° C. level similar to absence of hTf)): significantly suppressed |
| Co-Tf: Cobalt(III) transferrin | more effective agonist than hTf |  |  |
| ferric mycobactin J [Fe-MJ] |  |  | lipid-aqueous-phase partition coefficient Kx [2]: 3×10^5; Fe-MJ from the aqueous phase as share of total recovered Fe-MJ (macrophage cells; after 24-hr incubation of MJ in macrophage culture (1×10^5 cells/ml), presence or absence of hTf): 80%; cell-aqueous-phase partition coefficient K (Cv/Cw=K×[Cell]) (macrophage cells; macrophage cells, RPMI 1640, 37° C.): 9.8×10^−7 ml/cell |
| Ga(III) transferrin: Ga(III) transferrin complex prepared from apo transferrin | failed to stimulate | greatly suppressed |  |
| Al(III) transferrin: Al(III) transferrin complex prepared from apo transferrin, Al(NO3)3 and nitrilotriacetic acid | failed to stimulate | greatly suppressed |  |
